Data taken from paper doi:10.1101/2021.11.12.467822.

Key:
full-length (FL) UBQLN2 = full-length (FL) UBQLN2 (UniProt Q9UHD9); test: NMR titration
[1] = molecular target: fluorescently labeled K48-Ub4 (S20C on the most distal Ub, Alexa Fluor 488) (UniProt P0CG48); test: fluorescence polarisation

Substance	Kd (full-length (FL) UBQLN2) [nM]	Kd [1] [nM]
ubiquitin (Ub) (from UniProt P0CG48 1-76) (natural protein; other documents disagree on this pair)	3000	–
UBQLN2 450-624 (from UniProt Q9UHD9 450-624) (domain or fragment)	–	2700
